Test results taken from the supplement of paper PMC10567573.

B1: ALKBH7 (parent)
chain: SVICRSLPEGMGPGESGQPPPAC

Variants of: B1
Assay: protein stability index of a GFP-peptide fusion (GPS, HEK-293T) (PSI 1-6); higher = more stable
Conditions: c terminus: native
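Also: lentivirally expressed fusions sorted by FACS into six bins by GFP to DsRed ratio, PSI derived from sequencing read proportions per bin multiplied by bin number.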

In order of falling protein stability index:
1. P19D  4.84
2. M11D  4.2
3. Q18Y  3.38
4. P13R  3.33
5. G10M  3.27
6. P19C  3.13
7. M11E  3.08
8. G10S  3.04
9. Q18F  3.03
10. S16V  3.02
11. E9D  2.97
12. G17K  2.94
13. G12E  2.85
14. M11N  2.81
15. G12M  2.68
16. E15S  2.68
17. G10A  2.59
18. S16M  2.59
19. Q18I  2.56
20. E9G  2.54
21. P8Q  2.53
22. G12D  2.52
23. M11Y  2.52
24. E15F  2.49
25. P8N  2.48
26. G17I  2.46
27. G17E  2.45
28. E15D  2.44
29. E15V  2.44
30. G14N  2.42
31. E15M  2.4
32. G14Q  2.4
33. P13N  2.4
34. P13D  2.4
35. G17A  2.39
36. Q18H  2.38
37. P13Q  2.38
38. G12P  2.37
39. G14A  2.37
40. S16F  2.37
41. M11A  2.37
42. Q18S  2.36
43. G17D  2.36
44. P13S  2.35
45. P8S  2.32
46. G10D  2.29
47. S16G  2.29
48. M11R  2.29
49. S16K  2.28
50. G14D  2.25
51. M11S  2.23
52. G12K  2.22
53. S16D  2.2
54. P13H  2.18
55. G12A  2.17
56. Q18K  2.16
57. P13K  2.16
58. Q18A  2.15
59. Q18E  2.15
60. G17L  2.14
61. S16R  2.12
62. G17Q  2.11
63. E15I  2.1
64. G12N  2.09
65. Q18L  2.07
66. G14H  2.07
67. S16P  2.07
68. S16H  2.07
69. S16N  2.06
70. Q18D  2.05
71. Q18N  2.05
72. G12Y  2.04
73. E15T  2.01
74. P8W  2.01
75. G12Q  2
76. Q18R  2
77. G14L  2
78. M11L  1.99
79. E9I  1.99
80. M11H  1.98
81. S16A  1.97
82. G17N  1.95
83. G10C  1.95
84. G10I  1.95
85. S16Y  1.95
86. E9N  1.93
87. S16T  1.92
88. P13C  1.92
89. P13E  1.92
90. G10Y  1.91
91. G10E  1.91
92. G10K  1.91
93. E9R  1.91
94. G10F  1.89
95. G10P  1.88
96. G12S  1.87
97. G12I  1.87
98. E9F  1.86
99. G12L  1.85
100. Q18M  1.85
101. E9Y  1.85
102. M11P  1.84
103. E9Q  1.83
104. G12R  1.82
105. E15G  1.82
106. S16E  1.81
107. P13T  1.81
108. E15N  1.8
109. S16Q  1.8
110. G14T  1.77
111. E9H  1.77
112. G10R  1.76
113. P13I  1.75
114. P13Y  1.74
115. G17C  1.73
116. E15P  1.73
117. M11C  1.73
118. P13A  1.73
119. G17S  1.71
120. E15H  1.71
121. P19A  1.71
122. E9T  1.7
123. E9K  1.7
124. G12H  1.69
125. E9W  1.68
126. G14R  1.67
127. P8T  1.67
128. Q18C  1.66
129. E15Y  1.66
130. G14M  1.63
131. E15K  1.62
132. G17T  1.61
133. G14F  1.61
134. E15R  1.6
135. S16I  1.59
136. G14K  1.58
137. P13G  1.58
138. P13W  1.57
139. E9M  1.55
140. P13F  1.55
141. P13M  1.55
142. G12F  1.54
143. G14E  1.53
144. G14C  1.52
145. G10L  1.51
146. G10N  1.5
147. E9S  1.5
148. M11F  1.49
149. G14S  1.42
150. P8V  1.42
151. G17H  1.4
152. P13V  1.4
153. P13L  1.39
154. G17R  1.38
155. G14W  1.26
156. G14I  1.24
157. E9L  1.23
158. E15Q  1.16
159. G14V  1.15
160. G12W  1.09
161. G17Y  1.09
162. E15A  1.09
163. G10T  1.03
164. E15L  1.02
165. E9C  1.02
166. E15C  1.01
167. M11W  1
